Measurements reported in PMC4272287 (PLoS ONE, 2014).
Changes are numbered by the printed parent chain. In names and notes the source's numbering stands.

B1: sdAb A3, anti-Staphylococcal Enterotoxin B single domain antibody (VHH)
VHH: EVQLVESGGGLVQAGDSLRLSCTASGRTFSRAVMGWFRQAPGKEREFVAAISAAPGTAYYAFYADSVRGRFSISADSAKNTVYLQMNSLKPEDTAVYYCAADLKMQVAAYMNQRSVDYWGQGTQVTVSS
notes: also called wild type sdAb A3
B2: sdAb A3 Construct 1 (A49C I73C) (VHH)
VHH: B1 VHH with A49C, I73C
notes: Keeps C22/C99
B3: sdAb A3 Construct 4 (Q3C Y118C) (VHH)
VHH: B1 VHH with Q3C, Y118C
notes: Keeps C22/C99
B4: sdAb A3 Construct 2 (A50C A108C) (VHH)
VHH: B1 VHH with A50C, A108C
notes: Keeps C22/C99
B5: sdAb A3 Construct 3 (V33C M105C) (VHH)
VHH: B1 VHH with V33C, M105C
notes: Keeps C22/C99

Target: T1, Staphylococcal enterotoxin B (Staphylococcus aureus, strain , UniProt P01552)
T1 construct: source: bought: Toxin technologies
Assay: SPR
Conditions: both partners purified

T1 sequence (P01552 28-266): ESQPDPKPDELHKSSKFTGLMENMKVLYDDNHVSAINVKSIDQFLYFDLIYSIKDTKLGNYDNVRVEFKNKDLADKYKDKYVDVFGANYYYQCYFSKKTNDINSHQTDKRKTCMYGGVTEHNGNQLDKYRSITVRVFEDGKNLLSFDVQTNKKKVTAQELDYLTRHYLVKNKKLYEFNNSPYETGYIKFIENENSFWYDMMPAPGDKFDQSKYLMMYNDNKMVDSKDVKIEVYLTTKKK

| Binder | Kd [nM] |
| --- | --- |
| B1 | 0.23 |
| B2 | 0.66 |
| B3 | 0.06 |
| B4 | 0.06 |
| B5 | 0.21 |
